# From the DeepSol protein solubility set
# Assay: soluble on expression in E. coli; label from the status in PepcDB or PDB records
row,Sequence,soluble on expression in E. coli
1,MGSDKIHHHHHHMGKVTIEPLSRLEGHGKVSITLDDAGKPTDVKLHITALRGFEQFVVGRPAEEVPRIVPRICGICQTPHHLASVKAVDAAWGAEVPSAAEKLRELMHLGNMMHSHALHFYYLAAPDFVLGPDSDPAARNIIGVIGAAPEVAKKAIAMRRVGQSIVETIGGRAIHPVTGVPGGVSKALSEEKRDELLNEIDEMIAYGQDGIALIKSLNEKYMDLAKTLGVIDTWYLGMVKDGKHNFYGDTLRFMSPDGKQTTDFKPSEYLDNIGEHVVGHNYVKYPYNKKVGYPDGLYRVGPLAMLNVCDSMPTPLAEEARKDFADTFGKPANQSLAYNHARLIELLASCERVKELLEDSEITSTDIKAEVEPKAGNGVGAIYAPRGTLFHNYETDDKGIVVKANMIVASTHNVPTMEKAIQQAAEVVFK,not soluble
2,ARPCIPKSFGYSSVVCVCNATYCDSFDPPTFPALGTFSRYESTRSGRRMELSMGPIQANHTGTGLLLTLQPEQKFQKVKGFGGAMTDAAALNILALSPPAQNLLLKSYFSEEGIGYNIIRVPMASCDFSIRTYTYADTPDDFQLHNFSLPEEDTKLKIPLIHRALQLAQRPVSLLASPWTSPTWLKTNGAVNGKGSLKGQPGDIYHQTWARYFVKFLDAYAEHKLQFWAVTAENEPSAGLLSGYPFQCLGFTPEHQRDFIARDLGPTLANSTHHNVRLLMLDDQRLLLPHWAKVVLTDPEAAKYVHGIAVHWYLDFLAPAKATLGETHRLFPNTMLFASEACVGSKFWEQSVRLGSWDRGMQYSHSIITNLLYHVVGWTDWNLALNPEGGPNWVRNFVDSPIIVDITKDTFYKQPMFYHLGHFSKFIPEGSQRVGLVASQKNDLDAVALMHPDGSAVVVVLNRSSKDVPLTIKDPAVGFLETISPGYSIHTYLWHRQ,soluble
3,MGSSHHHHHHSSGLVPRGSHMNVKKFPEGFLWGAATSSYQIEGAWNEDGKGESIWDRFTRIPGKIKNGDSGDVACDHYHRYEQDLDLMRQLGLKTYRFSIAWARIQPDSSRQINQRGLDFYRRLVEGLHKRDILPMATLYHWDLPQWVEDEGGWLSRESASRFAEYTHALVAALGDQIPLWVTHNEPMVTVWAGYHMGLFAPGLKDPTLGGRVAHHLLLSHGQALQAFRALSPAGSQMGITLNFNTIYPVSAEPADVEAARRMHSFQNELFLEPLIRGQYNQATLMAYPNLPEFIAPEDMQTISAPIDFLGVNYYNPMRVKSSPQPPGIEVVQVESPVTAMGWEIAPEGLYDLLMGITRTYGKLPIYITENGAAFDDQPDQSGQVNDPQRVGYFQGHIGAARRALADGVDLRGYYAWSLLDNFEWAEGYSKRFGIIYVDFETQQRTLKQSAQWYRDVIANNGLED,soluble
4,MASVTFSVPKGFTEFSGLRSSSASLPFGKKLSSDEFVSIVSFQTSAMGSSGGYRKGVTEAKLKVAINGFGRIGRNFLRCWHGRKDSPLDIIAINDTGGVKQASHLLKYDSTLGIFDADVKPSGETAISVDGKIIQVVSNRNPSLLPWKELGIDIVIEGTGVFVDREGAGKHIEAGAKKVIITAPGKGDIPTYVVGVNADAYSHDEPIISNASCTTNCLAPFVKVLDQKFGIIKGTMTTTHSYTGDQRLLDASHRDLRRARAAALNIVPTSTGAAKAVALVLPNLKGKLNGIALRVPTPNVSVVDLVVQVSKKTFAEEVNAAFRDSAEKELKGILDVCDEPLVSVDFRCSDFSTTIDSSLTMVMGDDMVKVIAWYDNEWGYSQRVVDLADIVANNWK,soluble
5,TMIAIKPTKLKDFSSLMQLDVQEEQIGFAKPFEQAYQKRNKSEVFFTIYSDYLTVGYLIIDKGFAQHAPFAMRHELGLNYLMIDRRFQRQGIGAEALKKLFVYAYTIDPESTSLCVTVPNSHQGALDFFLACGFTNTEKAIYGEQEKEWLMRHPL,not soluble
6,MTHPFEPFFDKDSKILILGSFPSIKSRQDGFYYQHPRNRFWPILETLFNAKLENITEQQAFLRKKHIALWDVLQSCKIKNSDDKTISYAKANDLNLILSQTKIQAIFTTGQSAYRFFVKFHPRLEAIALPSTSPANLNFSFEQLLQNYEIIKKFTKLEHHHHHH,not soluble
7,MSLIQEYVPGKQVTLAHIIASPNKEIYTKLGLPEGTSNALGILTITPSEAAIIAVDIATKSGDIQIGFIDRFSGSVVISGDVSSVEAALQAVIEGLQQILNFSVTCKITRTEGGSHHHHHH,soluble
8,MQVLTTSRKPGRKTRRFAKVLARFFNWKYVNRGKLSLEDLAGIAERFWIISEVKGNPAILNLYERGEKTLEVSFTLSNVNKIKMDDSPAVFKGKAPIDPLVFGAIPQTKAGLKLTRKVEFRKKVVVKGDEWLFFYDDEMLFKLRILKISRSSR,not soluble
9,MSLNSTQMNKQVIDKYTQRHELYLEQLLNEIIIPAPQIRSALHYALFSGGKRIRPILVYLAGDLIDVDQGVLDIIAAALELTHCYSLIHDDLPAMDNDDLRRGKPSCHKAFDEATAILVGDGMQALAIEVLLMRLSPLLPAAQVVAITQVLVNASGISGMVSGQSLDLSELAKSSVTEEQLREIHLLKTGKLILACFEMVLAAQHEVSEQIKSALRTYGKHIGLVFQMQDDYLDLYAPTQILGKGRSSDQANQKTTFATLFNKQQLEEEIAVHYQIAMDSLRLFGSKAAALIELTKQLQNRSNLSEGHHHHHH,soluble
10,GMTAPTLSRAAMEKVIRTYYDGCNEADEAKMIACFVPEAVHYFPAGMYGGAFRGAAQIAHRWRTAVETLGSYWTIDALVIDAETAEAAIEWTHFKTNQDKVLRGAECVEFDRASGLIREIRAFYASPQAEGIARLELGDFDYAGRGYRVTSPRKPA,soluble
11,MNIGIIGTGNMGNILIDAFLETRAVKPSCLTIINRTPAKAYHIKEKYPSVHIAKTIPEVIEQSQLIFICVKPIDIYPILKKYAEHFSDETCLVSITSPISPSQLETLVPCHVARIIPSITNRALSGASLFTFGDNCSEEWQQKLLRLFKNISTPLVIEEDITRVSSDIASCGPAFFSYLLQCFINAAVDKTNITHEEATTLVSEMVVGMGKLLEKEIFTLPTLQEKVCVKGGVTGEGIRVLEEHVGDMFHKLIERTHEKFDEDLECVDQQFNKHT,not soluble
12,MAHHHHHHMADGKAENELMEIEEIAVSDGGAARFAPVEVKSGEEKYNIVWEETGKLLRFDEGENAWKERGQGMAKILQKKEDSGVYMFVFRREGVGKLAAQHYLLRGMTIKVHPQSEKALLWTAFKDYSDDEEGFPERFVLRFASKELADSGLKAFNDALSKTTT,soluble
13,MGSDKIHHHHHHMNDYLDDYEFNNLDFYRKNHGLQLYYNWSGEICWQETPDKPQEKLFSIIGMNATKVFLKPDPEHGEVGYRINRELGLFCDPDTQEILHSWKSPTASQPVPVVHIANRIVQGSVKPKKFVIPKGKGYITSVMEIPLEYPHPLAGDSKYLDYCPGEKFKGVEYFISNTCRPDATEVPPAKWARDCPWMPWMKLGYAHPAKLRFETTIFRVDSFEQLHPSLVNLVREKVPIYEFTPTESDEPNVTSIQYFKKNFESYLRGDIFPLEERY,not soluble
14,MGSDKIHHHHHHMTIYSPDTINFNGVNGDRYWFDEPFPYTGVGDIDERLSGFPVAVFLPHHRPRQETPLVIGLQGMCAPYGWNAFIVPTLTEMGIAVALFDPPLSGERSLVRTSTTLVQNEIKPLIDRGIPFDTALFLSIFRTTARDISKIREFCGDRYGLTDSRLALFGVSMGVLLSAYAFTANSLGDRLLGTIGHADLPSFAKSWGRPFLPDLAASPLGGLAESLLQRLQPDLAPLFQLLRLTKNLKYQDEYAWDCNPMNYIQQVDSHRRVRFLVGANDSIVKIKDARACAQKFPDGDCYVVPGMGHGTRQSGVSFVDHVRYFLATQLGDWCG,not soluble
15,MGSDKIHHHHHHQVSGDVVKIGILNDQSGLYADLAGAGSVQAARMAIEEFGGQVLGKKIELVWADHQNKADIGAGIARAWFDREGVDAIADFSNSSVGFAVQGLANERKKITLVAAGSSDFTGKACSPFSTQWVYNSYSNGYGLARLLASRGMDSVFLLTVDYTFGHAFANDVRKAVTENGGKVLGEVRFPLNSFDLSSYLLQAQASKAKLIVTAAAGSDMTSTVKQANEFGITPGQALAAPAVFITDVNSMGLQAAQGLQFVTAFYWDRTPDSRAWAEKFFARQKAMPSMTQAGVYSAVRHYLKAVEAAKTDDAVAVAAKMRELPVRDMNIENGRVREDGQVMHDMYLVEVKKPDESRRAWDYYKVLTTVPADQAFQALADSACPLVGKQ,not soluble
16,FGSLTVFAGDSPYAPPAGGEAIGRLMERAMHDGLVAGGIVLVGNRHGTIYEHVFGKQSSLPDSPPVTSSTIFDIASLTKVIATTPAVMRLAEEGRLSLVDPLVRWFPEFAGHGKDDVLVVHLLTHTSGLDDFSLSSADPLQSAISGVAAQKLKGEPGNRFRYADINFILLGELVRRVTGSTLDRYAADAFLRPLGMKDTAFLPGPAIAERCAATLDGSGGPHFGTVQDPLARLLGGVAGHAGLFGTASDLALFCRMILGEGELNGRRVLEERTVRQMTAPYFSRGGKVTRGLGWDMASPFSSPRGEGFSEESFGHTGYSGGSIWIDPRTDTYVIFLS,not soluble
17,MWKLQSPHSCVPMLVWDCSLHPPSQYCSPLFETAVAENINRLSSHCIKKKSIQRGEKMKKILKLLSCIVVLTIAGCLNQPPPSTLALWEKPGADKAMTQQALTKCGWKPVYASPDDMNSYASEFASVYECMKKAGFRYKLQDSKGIYFSPPAKSSSFLSNLMVAGYQQFMENESFGVSNSTKHERELMLRIEKEKKRQKTKKSLQR,not soluble
18,KRAVDARTVGRMIRMSGCPDESASAKAVDWFVLMFMLRGIPFVDLAHLRRSNLDKGVLTYCRHKTGQEVSISVPREAMEIINRRMVENCHPSYLLPILGQPRTRKRHTKKALTPYQEYQYALRNLNRRLERVSVDLRLGGRLSSYTARHTWATIAFHQETPVGVISRGLGHSSVKVTETYLKPFGDREVDRTNRKILNYVLNAV,not soluble
19,MSRSLLTNETSELDLLDQRPFEQTDFDILKSYEAVVDGLAMLIGSHCEIVLHSLQDLKCSAIRIANGEHTGRKIGSPITDLALRMLHDMTGADSSVSKCYFTRAKSGVLMKSLTIAIRNREQRVIGLLCINMNLDVPFSQIMNTFIPPETPEVGSAVNFASSVEDLVTQTLEFTIEEVNADRNVSNNAKNRQIVLNLYEKGIFDIKDAINQVADRLNISKHTVYLYIRQFKSGDFQGQDK,not soluble
20,MSSDPDKMMSKADKMTKLTLTRWSADWRGATELYEQAANGFRASNKYEKAKVALEKASKGQEMQASPWDAAKHMESAAALAQKLSIWNEVADFYRKASELYVECGRAQPASDALGKAARALEDVKPDDAIQLYTDACEILEEDGRDQMAFDLYRACANVYIKLEKFTDAATFFLRLGVAADKCDATNSQCKAYLSAIILYLYAHDLQQAEKCYNDCSQIDAFLKSDQSRSASRLLTAYNEGDIEEIKKVASASTVSNLDHMIIKLARKLPTGDVTAIQMNTNDDLDEDDLT,soluble
21,MGSDKIHHHHHHSDFLNLTPYSEITAENFYQNEEDFRQAVNGAYEPLRNMYNTEEWNLGEAKSDNTTYIIHIAKSSLDGEDPDQFLETSTNGNVGTKYNNCYVIIGRCNRIISEIDQADFDAEAKSNLKGQALFLRAFCYFNLVQYFGGVPLHTTPSTVYEEAFKPRASVDEVYEQIMKDAQEASDLLPVKSRQEVGRVSKGSAQTLLGNVYMVLKRWAEAEQTLKEVVSSGEYELLADYGSIYSISNKNHKESIFEIQYMQDASLGQQSDFIYRFLPYMTNPSAITGTTPNPCPSNVDHGGFNTPTIDLINAYEKGDKRLDASIGMVEGKLTDSYALDATGVKSIVDYEPAPGITAYPFIKKYFHEHIKPYYTDDNWPVYRYAEVLLFLAEAINEQNRPDEAIHYLNDTFGQASIRGRAGLAPVKSQNVDALREAIYQERRIELAFENKRWTDLLRTGRAVEVMTRHGQKIKANPESYYWPDGVQPVANAYLFNPDKCLLPIPLREIDLNSELKQNPGY,not soluble
